From article PMC12136491, “Establishment of an efficient one-step enzymatic synthesis of cyclic-2,3-diphosphoglycerate” (Frontiers in Microbiology, 2025)

Columns and labels:
[1] = substrate: Nc1ncnc2c1ncn2[C@@H]1O[C@H](COP(=O)(O)OP(=O)(O)OP(=O)(O)O)[C@@H](O)[C@H]1O; assay: purified protein; format: biochemical, Methanothermus fervidus; settings: 10 mM 2,3DPG constant, Mg2+/ATP molar ratio 0.5, 50 mM MES/KOH pH 6.5, 400 mM KCl, 55°C, two-substrate Michaelis-Menten fit
[2] = substrate: O=C(O)[C@@H](COP(=O)(O)O)OP(=O)(O)O; assay: purified protein; format: biochemical, Methanothermus fervidus; settings: 10 mM ATP constant, Mg2+/ATP molar ratio 0.5, 50 mM MES/KOH pH 6.5, 400 mM KCl, 55°C, two-substrate Michaelis-Menten fit

B1: MfcDPGS (cyclic-2,3-diphosphoglycerate synthetase) (Methanothermus fervidus DSM 2088) (protein)
chain: GETKKMICLVDGEHYFPVVKDSIEILDDLEHIDVVAVVFIGGTEKLQIEDPKEYSEKLGKPVFFGPDPKKIPYDVIKKCVKKYNADIVMDLSDEPVVDYTKRFRIASIVLKEGAVYQGADFKFEPLTEYDVLEKPSIKIIGTGKRIGKTAVSAYAARVIHKHKYNPCVVAMGRGGPREPEIVEGNKIEITAEYLLEQADKGVHAASDHWEDALMSRILTVGCRRCGGGMLGDTFITNVKRGAEIANKLDSDFVIMEGSGAAIPPVKTNRQIVTVGANQPMININNFFGPFRIGLADLVIITMCEEPMATTEKIKKVEKFIKEINPSANVIPTVFRPKPVGNVEGKKVLFATTAPKVVVGKLVNYLESKYGCDVVGVTPHLSNRPLLRRDLKKYINKADLMLTELKAAAVDVATRVAIEAGLDVVYCDNIPVVIDESYGNIDDAIIEVVEMAIDDFKNNR
notes: heat precipitation and SEC; homodimer (119 kDa)
- Km [1]: 550 ± 80 µM
- Km [2]: 1520 ± 400 µM
